Data: patent US20230034186A1 (DRAGONFLY THERAPEUTICS, published 2023)

Molecular target: HER2 (human, UniProt P04626 23-1255)
Experiment: cell-based or functional assay

B1: A49-F3′-TriNKET-Trastuzumab (bispecific antibody)
heavy: EVQLVESGGGLVKPGGSLRLSCAASGFTFSSYSMNWVRQAPGKGLEWVSSISSSSSYIYYADSVKGRFTISRDNAKNSLYLQMNSLRAEDTAVYYCARGAPMGAAAGWFDPWGQGTLVTVSSASTKGPSVFPLAPSSKSTSGGTAALGCLVKDYFPEPVTVSWNSGALTSGVHTFPAVLQSSGLYSLSSVVTVPSSSLGTQTYICNVNHKPSNTKVDKKVEPKSCDKTHTCPPCPAPELLGGPSVFLFPPKPKDTLMISRTPEVTCVVVDVSHEDPEVKFNWYVDGVEVHNAKTKPREEQYNSTYRVVSVLTVLHQDWLNGKEYKCKVSNKALPAPIEKTISKAKGQPREPQVCTLPPSRDELTENQVSLTCLVKGFYPSDIAVEWESNGQPENNYKTTPPVLDSDGSFFLYSWLTVDKSRWQQGNVFSCSVMHEALHNHYTQKSLSLSPG
chain: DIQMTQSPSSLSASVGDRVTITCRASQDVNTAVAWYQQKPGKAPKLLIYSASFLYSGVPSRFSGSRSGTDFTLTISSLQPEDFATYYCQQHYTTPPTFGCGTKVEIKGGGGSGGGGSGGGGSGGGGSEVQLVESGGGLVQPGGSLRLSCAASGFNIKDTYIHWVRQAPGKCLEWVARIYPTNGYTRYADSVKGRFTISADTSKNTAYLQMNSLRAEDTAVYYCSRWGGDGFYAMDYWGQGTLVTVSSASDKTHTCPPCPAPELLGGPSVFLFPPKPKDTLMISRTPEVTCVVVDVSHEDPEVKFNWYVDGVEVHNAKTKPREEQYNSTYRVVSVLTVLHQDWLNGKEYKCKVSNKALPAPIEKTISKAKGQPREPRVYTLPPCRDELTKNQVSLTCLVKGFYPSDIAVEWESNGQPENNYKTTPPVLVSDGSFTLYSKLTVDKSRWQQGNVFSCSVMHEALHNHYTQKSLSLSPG
light: DIQMTQSPSSVSASVGDRVTITCRASQGISSWLAWYQQKPGKAPKLLIYAASSLQSGVPSRFSGSGSGTDFTLTISSLQPEDFATYYCQQGVSFPRTFGGGTKVEIKRTVAAPSPPSDEQLKSGTASVVCLLNNFYPREAKVQWKVDNALQSGNSQESVTEQDSKDSTYSLSSTLTLSKADYEKHKVYACEVTHQGLSSPVTKSFNRGEC
  EC50 in KHYG-1-CD16V cell killing of Hs578T cells: 0.376 nM
  EC50 in KHYG-1-CD16V cell-mediated cytolysis of BT-20 cells: 1.16 nM
  fold potency against trastuzumab in triggering NK cell-mediated killing of SKBR-3 cells: 2.5 fold
